Experimental data: patent US20120136195A1, “DRUG DELIVERY SYSTEM OF TARGET DRUG AND METHOD OF IMPLEMENTING THE SAME” (priority 2010, published 2012)

Experiment: Impact of ultrasound acoustic pressure on enzyme activity of the drug
Type: physicochemical
From the text: In the evaluation of ultrasound power and parameter adjustment, and their impacts on enzyme activity, in order to ascertain whether ultrasound could affect drug activity, thus evaluating correctly the benefit of the present invention, therefore in an experiment, various acoustic pressure are given, and evaluations are made for activity of drug on the magnetic particles after applying various numbers of pulses. […] From the result it can be confirmed that, the present invention is able to cause suspension of magnetic particles, while reducing as much as possible its impact on the drug carried by the magnetic particles.

For “recombinant tissue plasminogen activator [rtPA]”, the “enzyme activity after applying ultrasound” value (acoustic pressure of 7.1 MPa (FIG. 9)) was “apparent loss of enzyme activity” and the “enzyme activity after applying ultrasound” value (lower acoustic pressure (below 7.1 MPa, FIG. 9)) was “will not be affected”.
